Experimental findings from patent US20180155451A1 (published 2018) are described below.

Assay [1] concerns the target T1, FcγRIIa H (human, UniProt P12318 34-217).
T1 construct: extracellular domain; also called FcγRIIa type H; 2aH
T1 sequence (looked up): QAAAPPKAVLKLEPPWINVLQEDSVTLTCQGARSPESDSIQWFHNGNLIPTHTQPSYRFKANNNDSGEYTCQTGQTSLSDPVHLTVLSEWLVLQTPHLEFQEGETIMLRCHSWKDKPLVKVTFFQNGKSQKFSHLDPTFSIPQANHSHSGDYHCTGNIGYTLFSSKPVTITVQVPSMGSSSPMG
In words: SPR; He/Con_2aH divided by He/Con_2b (FcγRIIb). As for the experimental part:
The heterodimerized antibodies He Abs in which one of the H chains was introduced with an alteration were assayed for their binding activities to each activating FcγR and inhibitory FcγR according to the method described in Example 4. […] The activating FcγRs in FIGS. 26, 27, 28, and 29 are FcγRIa, FcγRIIa (R), FcγRIIa (H), and FcγRIIIa, respectively.
Analysis of interaction between objective antibody and the FcγR was carried out using Biacore T100 (GE Healthcare). HBS-EP+ (GE Healthcare) was used as the running buffer, and the measurement temperature was set to 25° C. Chips produced by immobilizing the antigen peptide by the amine coupling method to a Series S Sencor Chip CM5 (GE Healthcare), or alternatively, chips produced by allowing preliminarily biotinylated antigen peptides to interact with and immobilize onto a Series S Sensor Chip SA (certified) (GE Healthcare) were used. Antibodies of interest were captured onto an antigen peptide-immobilized chip, and allowed to interact to each FcγR diluted with running buffer. To regenerate and repeatedly use the chip, the antibodies captured on the chip were washed off by reacting 10 mM glycine-HCl, pH 1.5.
(SPR reads the build-up and loss of mass on a sensor chip optically.)

In assay [2] the target is T2, FcγRIIb (human, UniProt P31994 43-217).
T2 construct: extracellular domain; also called 2b
T2 sequence (looked up): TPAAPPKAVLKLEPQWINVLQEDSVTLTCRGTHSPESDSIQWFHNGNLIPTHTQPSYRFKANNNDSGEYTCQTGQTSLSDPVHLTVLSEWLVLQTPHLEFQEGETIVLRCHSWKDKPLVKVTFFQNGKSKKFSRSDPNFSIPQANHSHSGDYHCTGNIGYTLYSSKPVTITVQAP
As to the kind of experiment: SPR (Biacore), relative binding vs GpH7-A5/GpH7-B3/GpL16-k0.

Assay [3] addresses T1, FcγRIIa H. The description is as above.
Assay [4] concerns the target T3, FcγRIIb extracellular domain with C-terminal His tag (human, UniProt P31994 43-217).
T3 construct: extracellular domain; Expressed in FreeStyle293 cells; used as analyte in Biacore; also called FcgRIIb; 2b; not shown: C-terminal His tag
T3 sequence (looked up): T2 sequence (looked up)
As to the kind of experiment: SPR (Biacore), antibody captured on antigen-peptide chip, FcgRIIb as analyte; binding relative to GpH7-B3/GpL16-k0 (HoCon Ab) = 100.

B1: GpH7-A5/GpH7-B3 variant K326_04F/GpL16-k0 (antibody, human IgG1, kappa)
heavy 1: not shown
heavy 2: not shown
light: DIVMTQSPLSLPVTPGEPASISCQASESLVHSNRNTYLHWYLQKPGQSPQLLIYKVSNRFSGVPDRFSGSGSGTDFTLKISRVEAEDVGVYYCSQNTHVPPTFGQGTKVEIERTVAAPSVFIFPPSDEQLKSGTASVVCLLNNFYPREAKVQWKVDNALQSGNSQESVTEQDSKDSTYSLSSTLTLSKADYEKHKVYACEVTHQGLSSPVTKSFNRGEC
notes: heterodimerized IgG1, mutation in one H chain only; also called He Ab
As for B1, in assay [1], the “He_2aH/2b (IIaH/IIb)” value amounted to 0.63 ratio. In addition, the He/Con_2b in assay [2] was 155 % of control He Ab (=100). The He/Con_2aH in assay [3] is 97 % of control He Ab (=100).

B2: GpH7-B3 variant L328_03V/GpL16-k0 (Ho Ab) (antibody, human IgG1, kappa)
heavy: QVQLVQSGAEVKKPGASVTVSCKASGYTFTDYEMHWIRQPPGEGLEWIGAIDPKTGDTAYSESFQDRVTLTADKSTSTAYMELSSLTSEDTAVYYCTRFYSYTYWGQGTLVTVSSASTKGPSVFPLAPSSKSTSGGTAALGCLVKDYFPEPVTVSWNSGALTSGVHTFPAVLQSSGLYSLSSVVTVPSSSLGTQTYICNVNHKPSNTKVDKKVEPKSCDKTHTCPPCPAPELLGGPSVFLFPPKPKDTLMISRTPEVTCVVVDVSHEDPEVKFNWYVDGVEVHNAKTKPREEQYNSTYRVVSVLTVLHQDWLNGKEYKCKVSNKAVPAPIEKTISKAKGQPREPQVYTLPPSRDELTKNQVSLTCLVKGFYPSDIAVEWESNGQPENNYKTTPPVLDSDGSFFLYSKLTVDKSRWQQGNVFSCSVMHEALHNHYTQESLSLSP
light: B1 light
notes: Substitution in both H chains; position in EU numbering; also called L328V homodimerized antibody
Take B2: the Ho/Con_2b in assay [4] is 135 % of control.

B3: GpH7-A5/GpH7-B3 variant S298_08L/GpL16-k0 (antibody, human IgG1, kappa)
heavy 1: not shown
heavy 2: not shown
light: B1 light
notes: as for B1
For B3, the “He_2aH/2b (IIaH/IIb)” value in assay [1] amounted to 0.78 ratio. In addition, the He/Con_2b in assay [2] is 108 % of control He Ab (=100). Besides, the He/Con_2aH in assay [3] is 85 % of control He Ab (=100).

B4: GpH7-A5/GpH7-B3 variant S267_15Y/GpL16-k0 (antibody, human IgG1, kappa)
heavy 1: not shown
heavy 2: not shown
light: B1 light
notes: as for B1
In the case of B4, in assay [1], the “He_2aH/2b (IIaH/IIb)” value was 0.52 ratio. Moreover, the He/Con_2b in assay [2] was 37.9 % of control He Ab (=100). Besides, the He/Con_2aH in assay [3] is 19.6 % of control He Ab (=100).

B5: GpH7-A5/GpH7-B3 variant S267_16H/GpL16-k0 (antibody, human IgG1, kappa)
heavy 1: not shown
heavy 2: not shown
light: B1 light
notes: as for B1
Turning to B5, in assay [1], the “He_2aH/2b (IIaH/IIb)” value came out at 0.45 ratio. Further, the He/Con_2b in assay [2] is 65.9 % of control He Ab (=100). Besides, in assay [3], the He/Con_2aH is 29.8 % of control He Ab (=100).

B6: GpH7-A5/GpH7-B3 variant S267_10E/GpL16-k0 (antibody, human IgG1, kappa)
heavy 1: not shown
heavy 2: not shown
light: B1 light
notes: as for B1
As for B6, the “He_2aH/2b (IIaH/IIb)” value in assay [1] is 0.27 ratio. For the same molecule, the He/Con_2b in assay [2] is 379 % of control He Ab (=100). Also, the He/Con_2aH in assay [3] is 102 % of control He Ab (=100).

B7: GpH7-B3 variant K334_19Q/GpL16-k0 (Ho Ab) (antibody, human IgG1, kappa)
heavy: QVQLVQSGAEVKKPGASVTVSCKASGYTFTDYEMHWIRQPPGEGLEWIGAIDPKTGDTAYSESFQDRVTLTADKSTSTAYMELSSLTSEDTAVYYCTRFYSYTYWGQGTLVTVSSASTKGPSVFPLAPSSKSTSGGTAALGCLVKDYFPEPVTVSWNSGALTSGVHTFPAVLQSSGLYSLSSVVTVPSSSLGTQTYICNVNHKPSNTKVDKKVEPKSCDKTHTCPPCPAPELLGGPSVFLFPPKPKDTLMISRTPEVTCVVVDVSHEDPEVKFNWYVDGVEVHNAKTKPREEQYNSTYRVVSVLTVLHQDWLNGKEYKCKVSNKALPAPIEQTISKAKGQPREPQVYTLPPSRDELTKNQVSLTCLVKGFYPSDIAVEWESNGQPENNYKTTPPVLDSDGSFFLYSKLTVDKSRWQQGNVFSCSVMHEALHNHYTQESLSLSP
light: B1 light
notes: Substitution in both H chains; position in EU numbering; also called K334Q homodimerized antibody
For the molecule B7, in assay [4], the Ho/Con_2b was 117 % of control.

B8: GpH7-A5/GpH7-B3 variant S267_03V/GpL16-k0 (antibody, human IgG1, kappa)
heavy 1: not shown
heavy 2: not shown
light: B1 light
notes: as for B1
In the case of B8, the “He_2aH/2b (IIaH/IIb)” value in assay [1] was determined as 0.26 ratio. In addition, the He/Con_2b in assay [2] was 192 % of control He Ab (=100). Moreover, the He/Con_2aH in assay [3] is 50.8 % of control He Ab (=100).

B9: GpH7-A5/GpH7-B3 variant S267_05P/GpL16-k0 (antibody, human IgG1, kappa)
heavy 1: not shown
heavy 2: not shown
light: B1 light
notes: as for B1
With B9, the “He_2aH/2b (IIaH/IIb)” value in assay [1] is 0.8 ratio. In addition, in assay [2], the He/Con_2b was 31.5 % of control He Ab (=100). The He/Con_2aH in assay [3] was 25.1 % of control He Ab (=100).

B10: GpH7-A5/GpH7-B3 variant S267_07I/GpL16-k0 (antibody, human IgG1, kappa)
heavy 1: not shown
heavy 2: not shown
light: B1 light
notes: as for B1
Consider B10, for which the “He_2aH/2b (IIaH/IIb)” value in assay [1] came out at 0.18 ratio. The He/Con_2b in assay [2] was 192 % of control He Ab (=100). Besides, the He/Con_2aH in assay [3] is 34.7 % of control He Ab (=100).

B11: GpH7-B3 variant K334_16H/GpL16-k0 (Ho Ab) (antibody, human IgG1, kappa)
heavy: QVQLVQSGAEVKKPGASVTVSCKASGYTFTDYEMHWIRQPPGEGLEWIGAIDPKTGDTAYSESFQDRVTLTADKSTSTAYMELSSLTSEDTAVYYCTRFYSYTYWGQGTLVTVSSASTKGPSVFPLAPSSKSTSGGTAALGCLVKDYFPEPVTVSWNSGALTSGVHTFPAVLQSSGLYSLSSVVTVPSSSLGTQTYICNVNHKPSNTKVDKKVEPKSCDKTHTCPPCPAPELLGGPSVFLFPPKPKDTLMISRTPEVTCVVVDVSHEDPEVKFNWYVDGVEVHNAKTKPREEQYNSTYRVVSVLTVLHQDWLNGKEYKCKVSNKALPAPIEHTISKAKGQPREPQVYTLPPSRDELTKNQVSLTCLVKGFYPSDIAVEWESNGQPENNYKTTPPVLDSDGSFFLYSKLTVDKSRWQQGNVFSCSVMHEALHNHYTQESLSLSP
light: B1 light
notes: Substitution in both H chains; position in EU numbering; also called K334H homodimerized antibody
Turning to B11, the Ho/Con_2b in assay [4] is 124 % of control.

B12: GpH7-A5/GpH7-B3 variant Y300_10E/GpL16-k0 (antibody, human IgG1, kappa)
heavy 1: not shown
heavy 2: not shown
light: B1 light
notes: as for B1
For B12, in assay [1], the “He_2aH/2b (IIaH/IIb)” value came out at 0.73 ratio. For the same molecule, the He/Con_2b in assay [2] is 134 % of control He Ab (=100). In addition, the He/Con_2aH in assay [3] is 97.2 % of control He Ab (=100).

B13: GpH7-A5/GpH7-B3 variant S267_20W/GpL16-k0 (antibody, human IgG1, kappa)
heavy 1: not shown
heavy 2: not shown
light: B1 light
notes: as for B1
For the molecule B13, the “He_2aH/2b (IIaH/IIb)” value in assay [1] was 0.66 ratio. Moreover, in assay [2], the He/Con_2b is 57.2 % of control He Ab (=100). The He/Con_2aH in assay [3] is 37.9 % of control He Ab (=100).

B14: GpH7-A5/GpH7-B3 variant S267_08L/GpL16-k0 (antibody, human IgG1, kappa)
heavy 1: not shown
heavy 2: not shown
light: B1 light
notes: as for B1
For the molecule B14, the “He_2aH/2b (IIaH/IIb)” value in assay [1] worked out at 0.27 ratio. The He/Con_2b in assay [2] was 109 % of control He Ab (=100). Further, in assay [3], the He/Con_2aH is 29 % of control He Ab (=100).

B15: GpH7-A5/GpH7-B3 variant V266_16H/GpL16-k0 (antibody, human IgG1, kappa)
heavy 1: not shown
heavy 2: not shown
light: B1 light
notes: as for B1
For B15, in assay [1], the “He_2aH/2b (IIaH/IIb)” value worked out at 0.37 ratio. Besides, the He/Con_2b in assay [2] is 57.2 % of control He Ab (=100). Moreover, the He/Con_2aH in assay [3] is 21.2 % of control He Ab (=100).

B16: GpH7-A5/GpH7-B3 variant P271_09D/GpL16-k0 (antibody, human IgG1, kappa)
heavy 1: not shown
heavy 2: not shown
light: B1 light
notes: as for B1
B16: the “He_2aH/2b (IIaH/IIb)” value in assay [1] worked out at 0.58 ratio. Besides, in assay [2], the He/Con_2b was 120 % of control He Ab (=100). The He/Con_2aH in assay [3] was 70.1 % of control He Ab (=100).
